Laboratory results as given in US20210246224A1 (Regeneron, published 2021).

Columns and labels:
[1] = target: T1, human HER2 expressed on cells (cancer cell lines and normal primary cultures) (human, UniProt P04626 23-1255); assay: cell-based or functional assay
[2] = target: T1, human HER2 expressed on cells (cancer …); assay: imaging, Alexa647-labelled antibody 10 ug/mL at 4 C on MDA-MB-361 cells; signal per nuclei, normalised to the highest cell line
Method: (§1) After, cells were washed twice with cold DMEM+10% FBS. […] After, the solution was replaced with DPBS/CM. Binding of the bispecific antibodies to each of the cell types was measured using an Image Xpress^Micro automatic microscope (Molecular Devices). […] (See also FIG. 2.)
(§2) The signal of antibody binding (mean intensity fluorescence of Alexa647) divided by the nuclei signals was determined for each condition using MetaXpress software (Molecular Devices). Values were normalized to the cell line displaying the highest antibody binding signal.

[3] = target: T2, human APLP2 extracellular domain expressed with a C-terminal myc-myc-hexahistidine tag (human, UniProt Q06481 32-692); assay: SPR, antibody captured, hAPLP2-MMH injected, 25 C
T2 construct: also called hAPLP2-MMH; APLP2.mmh

[4] = target: T1, human HER2 expressed on cells (cancer …); assay: imaging, Alexa647-labelled antibody 10 ug/mL at 4 C on JIMT-1 cells; signal per nuclei, normalised to the highest cell line
Method: as §1, §2

[5] = target: T1, human HER2 expressed on cells (cancer …); assay: imaging, Alexa647-labelled antibody 10 ug/mL at 4 C on MDA-MB-453 cells; signal per nuclei, normalised to the highest cell line
Method: as §1, §2

[6] = target: T1, human HER2 expressed on cells (cancer …); assay: imaging, Alexa647-labelled antibody 10 ug/mL at 4 C on SKBR3 cells; signal per nuclei, normalised to the highest cell line
Method: To test the ability of bispecific anti-HER2xAPLP2 molecules described herein to bind to cells lines expressing various levels of HER2, a high content imaging assay was performed. […] Cells were plated on collagen-coated, black wall, 96-well, optical plates (Greiner, Cat #655936) at 2.5×10⁵ cells per well in their appropriate culture media, which is described for each cell line/culture in Table 6, and incubated overnight at 37° C. in 5% CO₂.
as §1, §2

[7] = target: T3, human HER2 extracellular domain expressed with a C-terminal myc-myc-hexahistidine tag (human, UniProt P04626 23-652); assay: SPR (Biacore 4000), antibody captured on anti-human Fc, hHER2-MMH injected, 37 C
T3 construct: also called hHER2-MMH; HER2.mmh
Method: (§3) Equilibrium dissociation constants (KD values) for HER2 and APLP2 binding to purified anti-HER2xAPLP2 bispecific and parental antibodies were determined using a real-time surface plasmon resonance biosensor using a Biacore 4000 instrument. The Biacore sensor surface was first derivatized by amine coupling with a monoclonal mouse anti-human Fc antibody (GE, Cat #BR-1008-39) to capture anti-HER2xAPLP2 bispecific monoclonal antibodies. […] Kinetic association rate constant (ka) and dissociation rate constant (kd) were determined by fitting the real-time sensorgrams to a 1:1 binding model using Scrubber 2.0c curve fitting software. Binding dissociation equilibrium constants (KD) and dissociative half-lives (t1/2) were calculated from the kinetic rate constants as: […]

[8] = target: T1, human HER2 expressed on cells (cancer …); assay: imaging, Alexa647-labelled antibody 10 ug/mL at 4 C on NLE cells; signal per nuclei, normalised to the highest cell line
Method: as §1, §2

[9] = target: T1, human HER2 expressed on cells (cancer …); assay: imaging, Alexa647-labelled antibody 10 ug/mL at 4 C on NBE cells; signal per nuclei, normalised to the highest cell line
Method: as §1, §2

[10] = target: T2, human APLP2 extracellular domain …; assay: SPR (Biacore 4000), antibody captured on anti-human Fc, hAPLP2-MMH injected, 37 C
Method: as §3

[11] = target: T1, human HER2 expressed on cells (cancer …); assay: imaging, Alexa647-labelled antibody 10 ug/mL at 4 C on MCF7 cells; signal per nuclei, normalised to the highest cell line
Method: as §1, §2

[12] = target: T1, human HER2 expressed on cells (cancer …); assay: imaging, Alexa647-labelled antibody 10 ug/mL at 4 C on T47D cells; signal per nuclei, normalised to the highest cell line
Method: as §1, §2

B1: H4H25018D-SMCC-DM1 (bispecific antibody, IgG4, V domains shown)
VH 1: QVQLQESGPGLVKPSQTLSLTCTVSGGSISSGHYFWSWIRQHPGKGLEWIGYIFYSGSTHYNPSLKSRLSISVDTSKNQFSLRLTSVTAADTAVYYCAREEGDYNFWDVDYVPGHFDYWGQGTLVTVSS
VH 2: EVQLVESGGGLVQPGRSLRLSCVASGFTFADYAMHWVRQAPGKGLEWVSGISWNSGNIDYADSVKGRFTISRDNAKNSLYLQMNSLRTEDTALYYCAKVRIVVAGYYYYYYGMDVWGQGTTVTVSS
VL: not shown
modifications: SMCC-DM1 on lysines, sites not stated
IC50 (nM) of cell killing, JIMT-1 cells, 6 days, nuclei count [1]: 0.07 nM

B2: H4H25014D (bispecific antibody, IgG4, V domains shown)
VH 1: B1 VH 1
VH 2: EVQLVESGGGLVQPGGSLRLSCAASGFTFSTYVMSWVRQAPGKGPEWVSGISGRTGTTYYADSVKGRFTISRDNSKNTLYLQMNSLRAEDTAVYYCASRITAAGRGYYYYYGMDVWGRGTTVTVSS
VL: not shown
notes: Wild-type kappa CL and a modified (chimeric) IgG4 CH domain as set forth in US20140243504A1; also called bispecific anti-HER2xAPLP2 antibody
Antibody bound (% of highest) [2]: 30%
90 nM hAPLP2-MMH Bound (RU) [3]: 17.1 RU
Kd [3]: 9.98 nM
t½ [3]: 12.2 min
Antibody bound (% of highest) [4]: 17%
Antibody bound (% of highest) [5]: 25%
Antibody bound (% of highest) [6]: 100%
Kd [7]: 3.37 nM
t½ [7]: 16 min
Antibody bound (% of highest) [8]: 4%
Antibody bound (% of highest) [9]: 5%
100 nM hAPLP2-MMH Bound (RU) [10]: 23 RU
Kd [10]: 235 nM
t½ [10]: 1.1 min
Antibody bound (% of highest) [11]: 5%
Antibody bound (% of highest) [12]: 6%

B3: H4H25018D-Compound II (bispecific antibody, V domains shown)
VH 1: B1 VH 1
VH 2: B1 VH 2
VL: not shown
modifications: Compound II on reduced interchain cysteines
IC50 (nM) of cell killing, JIMT-1 cells, 6 days, nuclei count [1]: 0.3 nM

B4: H4H25018D-Compound I (bispecific antibody, V domains shown)
VH 1: B1 VH 1
VH 2: B1 VH 2
VL: not shown
modifications: Compound I on lysines, sites not stated
IC50 (nM) of cell killing, JIMT-1 cells, 6 days, nuclei count [1]: 0.2 nM

B5: H4H25019D-Compound I (bispecific antibody, V domains shown)
VH 1: QVQLVQSGPEVKKPGASVKVSCKASGYTFPNFGISWVRQAPGQGLEWMGWIAPYNVATNYAPKLQGRVTMTTDTSTSTAYMELRSLRSDDTAVYYCARWGAGYMGYYYYGMDVWGQGTTVTVSS
VH 2: B1 VH 2
VL: not shown
modifications: Compound I on lysines, sites not stated
IC50 (nM) of cell killing, JIMT-1 cells, 6 days, nuclei count [1]: 0.75 nM

B6: H4H13055P2 (antibody, V domains shown)
VH: B1 VH 1
VL: not shown
notes: fully human antibody; also called anti-HER2 parental antibody
100 nM hAPLP2-MMH Bound (RU) [10]: 0 RU
binding result [10]: no binding (tested: 300 nM highest concentration injected)

B7: H4H25019D-SMCC-DM1 (bispecific antibody, V domains shown)
VH 1: B5 VH 1
VH 2: B1 VH 2
VL: not shown
modifications: SMCC-DM1 on lysines, sites not stated
IC50 (nM) of cell killing, JIMT-1 cells, 6 days, nuclei count [1]: 0.13 nM

B8: H4H25019D-Compound II (bispecific antibody, V domains shown)
VH 1: B5 VH 1
VH 2: B1 VH 2
VL: not shown
modifications: Compound II on reduced interchain cysteines
IC50 (nM) of cell killing, JIMT-1 cells, 6 days, nuclei count [1]: 0.9 nM

B9: H4xH21387P2 (antibody, V domains shown)
VH: B1 VH 2
VL: not shown
notes: fully human antibody; also called anti-APLP2 parental antibody
90 nM hAPLP2-MMH Bound (RU) [3]: 60.5 RU
Kd [3]: 11.3 nM
t½ [3]: 11 min
100 nM hAPLP2-MMH Bound (RU) [10]: 114 RU
Kd [10]: 124 nM
t½ [10]: 1.1 min

B10: H4xH21362P2 (antibody, V domains shown)
VH: B2 VH 2
VL: not shown
notes: as for B9
90 nM hAPLP2-MMH Bound (RU) [3]: 36.6 RU
Kd [3]: 11.2 nM
t½ [3]: 10.9 min
100 nM hAPLP2-MMH Bound (RU) [10]: 34 RU
Kd [10]: 176 nM
t½ [10]: 1.3 min

B11: H4H13050P2 (antibody, V domains shown)
VH: B5 VH 1
VL: not shown
notes: Names starting with H4 or H4H denote fully human antibodies; also called anti-HER2 parental antibody
100 nM hAPLP2-MMH Bound (RU) [10]: -3 RU

B12: H4xH21371P2 (antibody, V domains shown)
VH: QVQLVQSGVEVKKPGASVKVSCKASGYTFTDYGISWVRQAPGQGLEWMGWISAHNGNTNYAQKLQGRVTMTTDTSTNTAYMELRSLRSDDTAVYYCARRNWKYFDYWGQGTLVTVSS
VL: not shown
notes: as for B9
90 nM hAPLP2-MMH Bound (RU) [3]: 52.1 RU
Kd [3]: 21.7 nM
t½ [3]: 0.5 min
100 nM hAPLP2-MMH Bound (RU) [10]: 48 RU
Kd [10]: 899 nM
t½ [10]: 0.03 min
